The assay deals with human GPR35 (GPR35a splice variant), receptor part of the hGPR35 SPASM sensors, Q9HC97. The experiment in a line: BRET (hGPR35 SPASM sensor). The following applies: chain shown with the change, highest concentration, read off a plot. For orientation: BRET reads energy transfer from a luciferase to a nearby fluorophore.
[1] abbreviates: bufrolin, 1e-6 M, parent: est. 1.1.
Where [2] appears, read: lodoxamide, 1e-6 M, parent: est. 1.1.
Setting [3] is: pamoic acid, about 10^-5.5 M, parent: est. 1.0.
Setting [4] is: zaprinast, 1e-4 M, parent: est. 1.1.

Sequence of human GPR35 (GPR35a splice variant), receptor part of the hGPR35 SPASM sensors, Q9HC97 (Q9HC97 whole entry, change not shown, canonical isoform): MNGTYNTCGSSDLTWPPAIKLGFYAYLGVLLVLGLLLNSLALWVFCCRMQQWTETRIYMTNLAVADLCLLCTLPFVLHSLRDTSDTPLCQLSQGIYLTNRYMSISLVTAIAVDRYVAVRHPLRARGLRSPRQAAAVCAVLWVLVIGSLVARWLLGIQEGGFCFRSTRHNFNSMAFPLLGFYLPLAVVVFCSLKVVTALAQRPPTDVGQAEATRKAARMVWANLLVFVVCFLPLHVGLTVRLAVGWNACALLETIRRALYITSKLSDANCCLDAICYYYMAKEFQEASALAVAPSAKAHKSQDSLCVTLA

DTENVRFVFHAVKDTILQENLKDLMLQ [final 27 aa of Gα12, G peptide of the hGPR35-Gα12 SPASM sensor, Q03113 G.H5.23 Ile to Leu]: the response (BRET ratio (fold change)) is 1.4 under setting [1], 1.4 under setting [2], 1.1 under setting [3] and 1.4 under setting [4].
For the molecule DTENVRFVFHAVKDTILQENLKQIMLQ [final 27 aa of Gα12, G peptide of the hGPR35-Gα12 SPASM sensor, Q03113 G.H5.22 Asp to Gln], the response (BRET ratio (fold change)) runs as follows: under setting [1], 1.1; under setting [2], 1.2; under setting [3], 1.1; under setting [4], 1.2.
